Values quoted from earlier work in patent CN114306299A, “贝利司他在制备缓解和/或治疗缺血性脑卒中药物中的应用” (Institute of Materia Medica of CAMS and PUMC, priority 2020, dated 2022).

System: stroke (脑卒中)
Conditions: clinical studies, fraction of patients

B1: t-PA: 美国FDA唯一批准用于治疗脑卒中的药物 (protein, UniProt P00750 36-562, looked up)
Tissue-type plasminogen …: SYQVICRDEKTQMIYQQHQSWLRPVLRSNRVEYCWCNSGRAQCHSVPVKSCSEPRCFNGGTCQQALYFSDFVCQCPEGFAGKCCEIDTRATCYEDQGISYRGTWSTAESGAECTNWNSSALAQKPYSGRRPDAIRLGLGNHNYCRNPDRDSKPWCYVFKAGKYSSEFCSTPACSEGNSDCYFGNGSAYRGTHSLTESGASCLPWNSMILIGKVYTAQNPSAQALGLGKHNYCRNPDGDAKPWCHVLKNRRLTWEYCDVPSCSTCGLRQYSQPQFRIKGGLFADIASHPWQAAIFAKHRRSPGERFLCGGILISSCWILSAAHCFQERFPPHHLTVILGRTYRVVPGEEEQKFEVEKYIVHKEFDDDTYDNDIALLQLKSDSSRCAQESSVVRTVCLPPADLQLPDWTECELSGYGKHEALSPFYSERLKEAHVRLYPSSRCTSQHLLNRTVTDNMLCAGDTRSGGPQANLHDACQGDSGGPLVCLNDGRMTLVGIISWGLGCGQKDVPGVYTKVTNYLDWIRDNMRP
- patients in whom treatment is ineffective or condition worsens (after t-PA treatment): 三分之二
- patients in whom t-PA is effective: 三分之一
